Assay: yeast display, Sf9 membrane polyspecificity reagent, FACS + sequencing; frameworks hold sequencing errors
Summary of the method: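 Polyreactivity labels are assigned by the sorting gate from which each nanobody was recovered. The gates were low and high (top ~1%), set on anti-HA fluorescence for expression and streptavidin fluorescence for reagent binding. Before sorting, galactose-induced (36–48 hours) yeast display cells were stained for 1 hour at 4 °C with 10% biotinylated, detergent-solubilized Sf9 membrane reagent.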

Row | Sequence | polyreactivity (PSR sort gate)
1 | QVQLVESGGGLVQAGGSLRLSCADSGSISDYYAMGWYRQAPGKERELVAAISWDGGSTYYADSVKGRFTISRDNAKNTVYLQMNSLKPEDTAVYYCAAVAWEGSGSEMYSWGQGTQVTVSS | low polyreactivity
2 | QVQLVESGAGLVQAGGSLRLSCAASGFTFPYYAMGWYRQAPGKERELVAAINYSGSSTDYADSVKGRFTISRDNAKNTVYLQMNSLKPEDTAVYYCAATPAYYYQAVTEDDYWGQGTHVTVSS | high polyreactivity
3 | QVQLVESGGGLVLAGGSLRLSCAASGSTFVYYAMGWYRQAPGKERELVAAISRSGGSTYYADSVKGRFTISRDNAKNTVYLQMNSLKPEDTAVYYCAAKVRFTRRYDYWGQGTQVTVSS | high polyreactivity
4 | QVQLVESGGGLVQAGGSLRLSCAASGSIIGFYAMGWYRQAPGKERELVARISKRGGITYYADSVKGRFTISRDNAKNTVDLQMNSLKPEDTAVYYCAVDRRVLWYHMDYWGQGTQVTLSS | high polyreactivity
5 | QVQLVESGGGLVQAGGSLRLSCAASGLIFRYYAMGWYRQAPGKERELVAVISRRGDSTYYADSVKGRFTISRDNAKNTVYLQMNSLKPEDTAVYYCAAQAFVSYFKFRGGYWGQGTQVTVSS | high polyreactivity
6 | QVHLVESGGGLVQAGGSLRLSCAASGSTFTYYAMGWYRQAPGKERELVAAITGRGGRTYYADSVKGRFTISRDNAKNTVYLQMNSLKPEDTAVYYCARYPSSDTYWTKYDYWGQGTQVTVSS | high polyreactivity
7 | QVQLQESGGGLVQAGGDLRLSCAASGNIFRDYIMGWYRQAPGKEREFVAGIDRGANTNYADSVKGRFTISRDNAINTVYLQMKSLKPVDTAVYYCAVHTAFVPDFIYWGQGTQVTVSS | low polyreactivity
8 | QVQLVESGGGLAQAGGSLRLSCAASGRTFVTNAMGWYRQAPGKERELVAAISKSGGRTYYADSVKGRFTISRDNAKNTVYLQMNSLKPEDTAVYYCAADKRYLSYDYWGQGTQVTVSS | high polyreactivity
9 | QVQLVESGGGLVQAGGSLRLSCAASGSIIYHYAMGWYRQAPGKERELVAAITSSGGSTYYADSVKGRFTISRDNAKNTVYLQMNSLKPEDTEVYYCAVESRGRAGGNYWGQGTQVTVSS | low polyreactivity
10 | QVQLVESGGGLVQAGGSIRLSCAASGSTFDPYAMGWYRQAPGKEREVVAAISGSRGGSTNYADSVKGRFTISRDNAKNTVYLQMNSLKQEDTAVFYCNARFSYRNGHYYRYYYGGQGTQVTVSS | high polyreactivity
11 | QVQLVESGGGLVQAGGSLRLSCAASGLIFARNALGWYRQAPGKERELVAAISWRSGRTYYADSVKGRFTISRDNAKNTVYLQMNSLKPEDTAVYYCAATSRTSWYGYWGQGTQVTVSS | high polyreactivity
12 | QVHLVESGGGLVQAGGSLRLSCAASGYTFLANAMGWYSQAPGKERELVAAISSGGTTYYADSVKGRFTISRDNAKNTVYLQMNSLKPEDTAVYYCATVFRDYDFNHWGQGTQVTVSS | low polyreactivity
13 | QVQLVESGGGLVQAGGSLRLSCAASGRIFVYYAMGWYRQAPGKERELVATISSGGSTYYADSVKGRFTISRDNAKNTVYLQMNSLKPEDTAVYYCAADNVNRYLAYYYKGDYWGQGTQVTVSS | low polyreactivity
14 | QVKLVESGGGLVQAGGSLRLSCAASGRIFGYYDMGLYRQAPGKDRELVAAISWNGGSTSYADSVKGRFTISRDNAKNTVYLQMNSLKPEDTAVYYCAAETQYDGYVGSFYYWGQGTQVTVSS | low polyreactivity
15 | QVQLVESGGGLVQAGGSLRLSCAASGRISTAYAMGWYRQAPGKERELVAAISSGTSTTYADSVKGRFTISRDNAKNTVYLQMNSLQPEDTAVYYCNADSWYGHYDSWGQGTQVTESS | low polyreactivity
16 | QVQLVESGGGLVQAGGSLRLSCAASGLIFYYYAMGWYRQAPGKEREFVAAINSSGDSTYYADSVKGRFTISRDNAKNTVYLQMNSLKPEDTAVYYCNVDWYLHEYDYWGQGTQVTVSS | low polyreactivity

Row | Sequence | polyreactivity (PSR sort gate)
17 | QVQLVESGGGLVQAGGSLRLSCPASGSIIYYAMGWSRQPPGKEREFVAAITKSGGSTYYADSVKGRFTFSRDNAKNTVYLQMNSLKPEDTAVYYCSARGTWAGFYYWGQGTQVTVSS | high polyreactivity
18 | QVQLVESGGGLVKAGGSLRLSCAASGSTFRKYAMGWYRQAPGKEREFVAAISSSGGRTYYADSVKGRFTISRDNAKNTVYFLMNSLKPEDTAVYYCNSYFRYSNDYWGQGTQVTVSS | high polyreactivity
19 | QVQLVESGGGLVQAGGSLRLSCAASGFTLWLNAMGWYRRAPGKERELVAAITTSDDGTYYADSVKGRFTISRDNAKNTVYLQMNSLKPEDTAVYYCAADYYSVLYDYWGQGTQVTVSS | low polyreactivity
20 | QVQLVESGGGLVQAGGSLRLSCAACGSTFRYYAMGWYRQAPGKERELVAAITYSGGSTYYADSVKGRFTISRDNAKNTVYLQMNSLKPEDTAVYYCNADFLPRWYPPPYDYWGQGTQVTVSS | high polyreactivity
21 | QVQLVESGGGLVQAGGSLRLSCAASGITYRPYAMGWYRQTPGKERELVASISRGGSTYYADSVKGRFTISRDNAKNTVYLQMNSLKPEDTAVYYCAAYFAWRYDYWGQGTQVTVSS | high polyreactivity
22 | QVQLVESGGGLVQAGGSLRLSCAASGFTFYGYAMGWYRQAPGKERELVAAISSSGGRTYYADSVKGRFTISRDNAKNTVYLQMNSLKPEDTAVYYCAADYTSRDYYYWGQGTQVTVSS | high polyreactivity
23 | QVQLVESGGGLVQAGGSLRLSCAASGRIFGLYAMGWYRHAPGKEREFVAANNWDGGSTFYADSVKGRFTISRDNAKNTVYLQMNSLKPEDTAVYSCAADVYSYVSYSTYVSVFTYDYWGQGTQVTVSS | low polyreactivity
24 | QVQLVESGGGLVQAGGSLRLSCAASGRTFTYYAMGWSRQAPGKERELVASITSGGSTYADSVKGRFTISRDNAKNTVYLQMNSLKPEDTAVYYCAARAWGYRYKYYWGQGTQVTVSS | high polyreactivity
25 | QVQLVESGGRLVQAGGSLRLSCAASGSTFGSYTMGWYRQAPGKERELVAAINWSGGNTYYADSVKGRFTISRDYAKNTVYLQMNSLKPEDTAVYFCAAAYYIYGFEGDYWGHGTQVTVSS | low polyreactivity
26 | QVQLVESGGGLVQAGGRLRLSCAASGGTFRLYTMASYRQAPGKERELVAGISSSSGSTYYADSVKGRFTISRDNAKNTVYLQMNSLKPEDTAVYYCAAYWPRSRYDYWGQGTQVTVSS | high polyreactivity
27 | QVQLVESGGGLVQAGGSLRLSCADSGLILHKYAMGWYRQAPGKDRELVASINSGANTNYADSVKGRFTISRDNAKNTVYLQMNSLKPEDSAEYYCNADPGFRSGEYGYSSFDYWGQGTQVTVSS | low polyreactivity
28 | QVQLEESGGGLVQAGGSLRLICAASGRIFGVNAMGWYRQAHGKERELVAVISSGGSTYYADSVKGRFTISRDNAKNTVYLQMNSLKPEDTAVYYCNAVVGSWFPYNLSDYWGEGTQVTVSS | low polyreactivity
29 | QVQLVESGGGLVQAGGSLRLSCAASGNTFYGYAMGWYRQAPGKERELVASITLSGDSTYYADSVKGRFTISRDNAKNTVYLQMNSLKPEDTAVYSCAGVYTYPLGYYHYTYDYWGQGTQVTVSS | low polyreactivity
30 | QVQHVASGGGIDQAGGSLRLSCAASGFIFSWYALGWYRQAPGKERELVAGISIRGGRTYADSVKGRFTISRDNAKNTVYLQMNSLTPEDTAVYSCATRSYRPYHSLYDYWGQGTQVTVSS | high polyreactivity
31 | QVQLVESGGGLVQAGGSLRLSCAASGSTFLDYTMGWYRQAPGKERELVAVISYRAGSTYYADSVKGRFTISRDNAKNTVYLQMNSLKPEDTAVYYCNADYYNYWLRRRYVWYESWGQGTQVTVSS | low polyreactivity
32 | QVKLVESGGGLVQAGGSLRLSCAAYGLIMGRYAMGWYRQEPGKERELVAAISGSGGSTYYADSVKGRFTISRDNAKNTVYLQMNSLKPEDTAVYYCAADRLRYRDMYYWGQGTQVTVSS | low polyreactivity
